This passage reports self-cleavage results from the RNAGym collection of RNA variant scans (doi:10.7554/elife.90254).

The chains are these.
B1: LINE1-full (parent)
chain: UACGUAGGUGGUUUUCCCCUGAUAGUGCUAAGGGGGCCUGGAAGUUUGGACUGGGCAGAGCUCAACACAGCGUGGCAAAGUGGCUGUGGCUAGACUGCCUCUCUGGAUUCCUCGUCACUCAGCAGGGCAUCUCUGAGAGAAAUGCC

Variants of B1 are the subject of the data set. The experiment in a line: self-cleavage, relative activity (ratio to wild type); higher = more cleavage; in vitro, sequencing; the parent is a self-cleaving ribozyme.
In the case of UACGUAGGUGGUUUUCCCCUGAUAGUGCUAAGGGGGCCUGGAAGUUUGGACUGGGCAGAGCUCAACACAGCGUGGCAAAGCGGCUGUGGCUAGACUGCCUCUCUGGAUUCCUCGUCACUCAGCAGGGCAUCUCUGAGAGUAAUGCC, the self-cleavage came to 1.9.
With UACGUAGGUGGUUUUCCCCUGAUAGUGCUAAGGGGGCCUGGAAGUUUGGACUGGGCAGAGCUCAACACAGCGUGGCAAAGAGGCUGUGGCUAGACUGCCUCUCUGGAUACCUCGUCACUCAGCAGGGCAUCUCUGAGAGAAAUGCC the figure was 2.28; with UACGUAGGUGGUUUUCCCCUGAUAGUGCUAAGGGGGCCUGGAAGUUUGGACUGGGCAGAGCUCAACACAGCGUGGCAAAGAGGCUGUGGCUAGACUGCCUCUCUGGAAUCCUCGUCACUCAGCAGGGCAUCUCUGAGAGAAAUGCC, 2.18.
With UACGUAGGUGGUUUUCCCCUGAUAGUGCUAAGGGGGCCUGGAAGUUUGGACUGGGCAGAGCUCAACACAGCGUGGCAAAGAGGCUGUGGCUAGACUGCCUCUCUGGACUCCUCGUCACUCAGCAGGGCAUCUCUGAGAGAAAUGCC the figure was 2.2; with UACGUAGGUGGUUUUCCCCUGAUAGUGCUAAGGGGGCCUGGAAGUUUGGACUGGGCAGAGCUCAACACAGCGUGGCAAAGCGGCUGUGGCUAGACUGCCUCUCUGGAUUCCUCGUCACUCAGCAGGGCAUCUCUGAGCGAAAUGCC, 2.23.
As to UACGUAGGUGGUUUUCCCCUGAUAGUGCUAAGGGGGCCUGGAAGUUUGGACUGGGCAGAGCUCAACACAGCGUGGCAAAGCGGCUGUGGCUAGACUGCCUCUCUGGAUUCCUCGUCACUCAGCAGGGCAUCUCUGAGUGAAAUGCC, the self-cleavage worked out at 1.22.
In the case of UACGUAGGUGGUUUUCCCCUGAUAGUGCUAAGGGGGCCUGGAAGUUUGGACUGGGCAGAGCUCAACACAGCGUGGCAAAGAGGCUGUGGCUAGACUGCCUCUCUGGAUUCCCCGUCACUCAGCAGGGCAUCUCUGAGAGAAAUGCC, the self-cleavage worked out at 2.32.
Next, UACGUAGGUGGUUUUCCCCUGAUAGUGCUAAGGGGGCCUGGAAGUUUGGACUGGGCAGAGCUCAACACAGCGUGGCAAAGAGGCUGUGGCUAGACUGCCUCUCUGGAUUCCUCGUCACUCAGCAGGGCAACUCUGAGAGAAAUGCC: 1.3.
Next, UACGUAGGUGGUUUUCCCCUGAUAGUGCUAAGGGGGCCUGGAAGUUUGGACUGGGCAGAGCUCAACACAGCGUGGCAAAGCGGCUGUGGCUAGACUGCCUCUCUGGAUUCCUCGUCUCUCAGCAGGGCAUCUCUGAGAGAAAUGCC: 1.56.
With UACGUAGGUGGUUUUCCCCUGAUAGUGCUAAGGGGGCCUGGAAGUUUGGACUGGGCAGAGCUCAACACAGCGUGGCAAAGCGGCUGUGGCUAGACUGCCUCUCUGGAUUCCUCGUCCCUCAGCAGGGCAUCUCUGAGAGAAAUGCC, the self-cleavage came out at 1.59.
For the variant UACGUAGGUGGUUUUCCCCUGAUAGUGCUAAGGGGGCCUGGAAGUUUGGACUGGGCAGAGCUCAACACAGCGUGGCAAAGCGGCUGUGGCUAGACUGCCUCUCUGGAUUCCUCGUCACUCAGCAGGGCGUCUCUGAGAGAAAUGCC, the self-cleavage stood at 1.56.
Turning to UACGUAGGUGGUUUUCCCCUGAUAGUGCUAAGGGGGCCUGGAAGUUUGGACUGGGCAGAGCUCAACACAGCGUGGCAAAGAGGCUGUGGCUAGACUGCCUCUCCGGAUUCCUCGUCACUCAGCAGGGCAUCUCUGAGAGAAAUGCC, the self-cleavage was determined as 2.77.
UACGUAGGUGGUUUUCCCCUGAUAGUGCUAAGGGGGCCUGGAAGUUUGGACUGGGCAGAGCUCAACACAGCGUGGCAAAGAGGCUGUGGCUAGACUGCCUCUCAGGAUUCCUCGUCACUCAGCAGGGCAUCUCUGAGAGAAAUGCC: the self-cleavage came out at 1.81.
For the variant UACGUAGGUGGUUUUCCCCUGAUAGUGCUAAGGGGGCCUGGAAGUUUGGACUGGGCAGAGCUCAACACAGCGUGGCAAAGAGGCUGUGGCUAGACUGCCUCCCUGGAUUCCUCGUCACUCAGCAGGGCAUCUCUGAGAGAAAUGCC, the self-cleavage stood at 2.18.
For the variant UACGUAGGUGGUUUUCCCCUGAUAGUGCUAAGGGGGCCUGGAAGUUUGGACUGGGCAGAGCUCAACACAGCGUGGCAAAGCGGCUGUGGCUAGACUGCCUCUCUGGAUUCCUCGUCACUCAGCGGGGCAUCUCUGAGAGAAAUGCC, the self-cleavage was 1.25.
As for UACGUAGGUGGUUUUCCCCUGAUAGUGCUAAGGGGGCCUGGAAGUUUGGACUGGGCAGAGCUCAACACAGCGUGGCAAAGCGGCUGUGGCUAGACUGCCUCUCUGGAUUCCUCGUCACUCAGCUGGGCAUCUCUGAGAGAAAUGCC, the self-cleavage came out at 0.74.
Consider UACGUAGGUGGUUUUCCCCUGAUAGUGCUAAGGGGGCCUGGAAGUUUGGACUGGGCAGAGCUCAACACAGCGUGGCAAAGCGGCUGUGGCUAGACUGCCUCUCUGGAUUCCUCGUCACUCCGCAGGGCAUCUCUGAGAGAAAUGCC, for which the self-cleavage came out at 1.37.
UACGUAGGUGGUUUUCCCCUGAUAGUGCUAAGGGGGCCUGGAAGUUUGGACUGGGCAGAGCUCAACACAGCGUGGCAAAGAGGCUGUGGCUAGACUGCCUCUCUGGAUUCCUCGUCACUCAGCAGGGCAUCUCCGAGAGAAAUGCC: the self-cleavage was 2.26.
As for UACGUAGGUGGUUUUCCCCUGAUAGUGCUAAGGGGGCCUGGAAGUUUGGACUGGGCAGAGCUCAACACAGCGUGGCAAAGAGGCUGUGGCUAGACUGCCCCUCUGGAUUCCUCGUCACUCAGCAGGGCAUCUCUGAGAGAAAUGCC, the self-cleavage was determined as 2.98.
With UACGUAGGUGGUUUUCCCCUGAUAGUGCUAAGGGGGCCUGGAAGUUUGGACUGGGCAGAGCUCAACACAGCGUGGCAAAGAGGCUGUGGCAAGACUGCCUCUCUGGAUUCCUCGUCACUCAGCAGGGCAUCUCUGAGAGAAAUGCC the figure was 0.93.
